In the Immune Epitope Database (IEDB):
pKd: −log10 of the molar value.

Assays:
HLA-B*15:01 = test: IEDB peptide-MHC binding, purified MHC/direct/fluorescence; filed as Kd, often an IC50 or EC50 that approximates it; ≥ and ≤ were set here for values at or beyond the usual limits of such assays
HLA-B*57:01 = test: as above
HLA-B*18:01 = test: as above
HLA-A*29:02 = test: as above
HLA-A*02:16 = test: as above
HLA-A*03:01 = test: as above
HLA-A*69:01 = test: as above
HLA-A*02:19 = test: as above
HLA-A*02:03 [1] = test: as above
HLA-A*02:01 [2] = test: as above
HLA-B*46:01 = test: as above
HLA-B*15:17 = test: as above; settings: source organism: Cryptosporidium parvum Iowa II
HLA-B*51:01 = test: as above
HLA-B*27:03 = test: as above
HLA-A*68:02 [3] = test: as above; settings: source organism: Cryptosporidium parvum Iowa II
HLA-A*02:11 = test: as above
HLA-A*26:01 [4] = test: as above
HLA-A*02:12 = test: as above
HLA-A*24:03 = test: as above
HLA-A*02:06 = test: IEDB peptide-MHC binding, purified MHC/competitive/fluorescence; filed as Kd, often an IC50 or EC50 that approximates it; ≥ and ≤ were set here for values at or beyond the usual limits of such assays; settings: source organism: Human immunodeficiency virus 1
HLA-A*30:01 = test: as above; settings: source organism: Human immunodeficiency virus 1
HLA-B*08:01 = test: as above; settings: source organism: Human immunodeficiency virus 1
HLA-B*15:09 = test: as above; settings: source organism: Human immunodeficiency virus 1
HLA-A*26:02 = test: as above; settings: source organism: Human immunodeficiency virus 1
HLA-A*02:03 [5] = test: as above; settings: source organism: Human immunodeficiency virus 1
HLA-A*02:01 [6] = test: as above; settings: source organism: Human immunodeficiency virus 1
HLA-A*68:02 [7] = test: as above; settings: source organism: Human immunodeficiency virus 1
HLA-B*07:02 [8] = test: as above; settings: source organism: Human immunodeficiency virus 1
HLA-A*26:01 [9] = test: as above; settings: source organism: Human immunodeficiency virus 1
HLA-B*39:01 = test: IEDB peptide-MHC binding, purified MHC/direct/fluorescence; filed as Kd, often an IC50 or EC50 that approximates it; ≥ and ≤ were set here for values at or beyond the usual limits of such assays
HLA-C*14:02 = test: as above; settings: source organism: Human immunodeficiency virus 1
HLA-C*15:02 = test: as above; settings: source organism: Human immunodeficiency virus 1
HLA-C*06:02 = test: as above
HLA-B*35:01 = test: as above; settings: source organism: Mycobacterium tuberculosis str. Haarlem
HLA-B*07:02 [10] = test: as above; settings: source organism: Mycobacterium tuberculosis str. Haarlem
HLA-B*15:42 = test: IEDB peptide-MHC binding, purified MHC/competitive/fluorescence; filed as Kd, often an IC50 or EC50 that approximates it; ≥ and ≤ were set here for values at or beyond the usual limits of such assays; settings: source organism: Homo sapiens
HLA-B*83:01 = test: as above; settings: source organism: Homo sapiens
HLA-B*45:06 = test: as above; settings: source organism: Homo sapiens
HLA-B*73:01 = test: IEDB peptide-MHC binding, purified MHC/direct/fluorescence; filed as Kd, often an IC50 or EC50 that approximates it; ≥ and ≤ were set here for values at or beyond the usual limits of such assays
HLA-B*27:05 = test: as above; settings: source organism: Yersinia enterocolitica
HLA-B*48:01 = test: as above; settings: source organism: Yersinia enterocolitica
[11] = source organism: Cryptosporidium parvum Iowa II
[12] = source organism: Mycobacterium tuberculosis str. Haarlem

Which results are given for DHIPIINTL?
pKd (HLA-B*15:01; [11]): ≤ 4.70; pKd (HLA-B*57:01; [11]): ≤ 4.70; pKd (HLA-B*18:01; [11]): ≤ 4.70; pKd (HLA-A*29:02; [11]): ≤ 4.70; pKd (HLA-A*02:16; [11]): ≤ 4.70; pKd (HLA-A*03:01; [11]): ≤ 4.70; pKd (HLA-A*69:01; [11]): ≤ 4.70; pKd (HLA-A*02:19; [11]): ≤ 4.70; pKd (HLA-A*02:03 [1]; [11]): ≤ 4.70; pKd (HLA-A*02:01 [2]; [11]): ≤ 4.70; pKd (HLA-B*46:01; [11]): ≤ 4.70; pKd (HLA-B*15:17): ≤ 4.70; pKd (HLA-B*51:01; [11]): ≤ 4.70; pKd (HLA-B*27:03; [11]): ≤ 4.70; pKd (HLA-A*68:02 [3]): ≤ 4.70; pKd (HLA-A*02:11; [11]): ≤ 4.70; pKd (HLA-A*26:01 [4]; [11]): ≤ 4.70; pKd (HLA-A*02:12; [11]): ≤ 4.70; pKd (HLA-A*24:03; [11]): ≤ 4.70

With EIKSLFNTI as the sequence, how does the pKd (HLA-A*02:06) read?
The pKd was 7.21.

What about the pKd (HLA-A*30:01) of the same sequence?
Its pKd is ≤ 4.70.

What about the pKd (HLA-B*08:01) of the same sequence?
The pKd was 5.79.

What about the pKd (HLA-B*15:09) of the same sequence?
The pKd was ≤ 4.70.

And the pKd (HLA-A*26:02)?
Its pKd is ≤ 4.70.

What about the pKd (HLA-A*02:03 [5]) of the same sequence?
The pKd was ≤ 4.70.

And the pKd (HLA-A*02:01 [6])?
Its pKd is ≤ 4.70.

What about the pKd (HLA-A*68:02 [7]) of the same sequence?
Its pKd is 7.44.

What about the pKd (HLA-B*07:02 [8]) of the same sequence?
Its pKd is 5.22.

What about the pKd (HLA-A*26:01 [9]) of the same sequence?
Its pKd is ≤ 4.70.

How did the pKd (HLA-B*15:01; [11]) turn out when ILTRLALFF was run?
Its pKd is ≤ 4.70.

What about the pKd (HLA-B*57:01; [11]) of the same sequence?
Its pKd is ≤ 4.70.

And the pKd (HLA-B*39:01; [11])?
Its pKd is ≤ 4.70.

And the pKd (HLA-B*18:01; [11])?
The pKd was ≤ 4.70.

What about the pKd (HLA-A*02:16; [11]) of the same sequence?
The pKd was ≤ 4.70.

And the pKd (HLA-A*03:01; [11])?
Its pKd is ≤ 4.70.

What about the pKd (HLA-A*69:01; [11]) of the same sequence?
Its pKd is ≤ 4.70.

What about the pKd (HLA-A*02:19; [11]) of the same sequence?
Its pKd is ≤ 4.70.

And the pKd (HLA-A*02:03 [1]; [11])?
The pKd was ≤ 4.70.

And the pKd (HLA-B*46:01; [11])?
The pKd was ≤ 4.70.

What about the pKd (HLA-B*15:17) of the same sequence?
The pKd was ≤ 4.70.

And the pKd (HLA-B*51:01; [11])?
Its pKd is ≤ 4.70.

And the pKd (HLA-B*27:03; [11])?
The pKd was ≤ 4.70.

What about the pKd (HLA-A*68:02 [3]) of the same sequence?
The pKd was ≤ 4.70.

What about the pKd (HLA-A*02:11; [11]) of the same sequence?
The pKd was ≤ 4.70.

And the pKd (HLA-A*26:01 [4]; [11])?
The pKd was ≤ 4.70.

And the pKd (HLA-A*02:12; [11])?
The pKd was ≤ 4.70.

What about the pKd (HLA-A*24:03; [11]) of the same sequence?
The pKd was ≤ 4.70.

With RMYSPVSIL as the sequence, how does the pKd (HLA-C*14:02) read?
The pKd was 6.15.

What about the pKd (HLA-C*15:02) of the same sequence?
The pKd was 6.16.

And the pKd (HLA-C*06:02; source organism: Human immunodeficiency virus 1)?
Its pKd is 5.51.

With WASGVPAAT as the sequence, how does the pKd (HLA-B*15:01; [12]) read?
Its pKd is ≤ 4.70.

And the pKd (HLA-B*57:01; [12])?
Its pKd is ≤ 4.70.

What about the pKd (HLA-B*39:01; [12]) of the same sequence?
The pKd was ≤ 4.70.

What about the pKd (HLA-B*18:01; [12]) of the same sequence?
The pKd was ≤ 4.70.

What about the pKd (HLA-A*29:02; [12]) of the same sequence?
Its pKd is ≤ 4.70.

What about the pKd (HLA-A*02:16; [12]) of the same sequence?
The pKd was ≤ 4.70.

What about the pKd (HLA-A*03:01; [12]) of the same sequence?
The pKd was ≤ 4.70.

And the pKd (HLA-A*02:19; [12])?
The pKd was ≤ 4.70.

What about the pKd (HLA-A*02:03 [1]; [12]) of the same sequence?
Its pKd is ≤ 4.70.

What about the pKd (HLA-A*02:01 [2]; [12]) of the same sequence?
Its pKd is ≤ 4.70.

What about the pKd (HLA-B*46:01; [12]) of the same sequence?
The pKd was ≤ 4.70.

And the pKd (HLA-B*51:01; [12])?
The pKd was ≤ 4.70.

What about the pKd (HLA-B*35:01) of the same sequence?
Its pKd is 6.50.

What about the pKd (HLA-B*27:03; [12]) of the same sequence?
The pKd was ≤ 4.70.

What about the pKd (HLA-B*07:02 [10]) of the same sequence?
The pKd was 5.19.

What about the pKd (HLA-A*02:11; [12]) of the same sequence?
Its pKd is ≤ 4.70.

What about the pKd (HLA-A*26:01 [4]; [12]) of the same sequence?
Its pKd is ≤ 4.70.

And the pKd (HLA-A*02:12; [12])?
The pKd was ≤ 4.70.

And the pKd (HLA-A*24:03; [12])?
The pKd was ≤ 4.70.

What does the source list for YEHYFVFAA?
pKd (HLA-B*15:42): ≤ 5.30; pKd (HLA-B*83:01): ≤ 5.30; pKd (HLA-B*45:06): 6.42; pKd (HLA-B*73:01; source organism: Homo sapiens): 7.65

Which results are given for YLYDETQDV?
pKd (HLA-A*69:01; source organism: Mycobacterium tuberculosis): 5.90; pKd (HLA-A*02:03 [1]; [12]): 8.70; pKd (HLA-C*06:02; source organism: Mycobacterium tuberculosis variant bovis BCG str. Pasteur 1173P2): 7.39; pKd (HLA-A*02:12; [12]): 8.22

What does the source list for YRLVSAVEK?
pKd (HLA-B*27:05): 7.52; pKd (HLA-B*73:01; source organism: Yersinia enterocolitica): ≤ 4.70; pKd (HLA-B*48:01): ≤ 4.70
